The record followed here is article PMC11601465.

For test [1], the target named is Nyl50. Put plainly: AUC.
The target in test [2] is Nyl50. Put plainly: AUC. The source holds these as a separate data set.
For test [3], the target named is Nyl50. Description: SEC.

As for Nyl50 (enzyme), the stoichiometry N in test [1] was determined as 4; in test [2], 2; in test [3] it was 2.
